Read-outs that look alike come from different tables or passages of the source. Each block holds one molecule with its values, some of them ahead of it.
Tests used:
Experiment in all cases: native MS
[1] = target: sensory rhodopsin II (pSRII) from Natronomonas pharaonis, pSRII(1-241) (Natronomonas pharaonis) (UniProt P42196)
native MS [2] = target: the molecule itself
native MS [3] = target: the molecule itself; remark: listed apart in the source

stoichiometry N [1]: 2
Molecule: sensory rhodopsin II (pSRII) from Natronomonas pharaonis, pSRII(1-241) (from UniProt P42196 1-239) (receptor)

B1: Diacylglycerol Kinase (DgkA) from E. coli (enzyme, E. coli K12, UniProt P0ABN1 2-122, looked up)
chain: ANNTTGFTRIIKAAGYSWKGLRAAWINEAAFRQEGVAVLLAVVIACWLDVDAITRVLLISSVMLVMIVEILNSAIEAVVDRIGSEYHELSGRAKDMGSAAVLIAIIVAVITWCILLWSHFG
stoichiometry N (native MS [2]): 2
stoichiometry N (native MS [3]): 3

— article PMC3868940 (Nature methods, 2013)
